Measured values from patent US20080227848.

Experiments:
2-5A-d-R peptide = biological target: T1, 2-5A-d-R peptide
T1 chain: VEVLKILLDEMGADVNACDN

[1] = biological target: T2, CAD, HIF C-terminal transactivation domain standard peptide
T2 chain: DESGLPQLTSYDCEVNAPI

FEM-1 21 mer peptide = biological target: T3, FEM-1 21 mer peptide
T3 chain: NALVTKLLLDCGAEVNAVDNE

FGIF peptide = biological target: T4, FGIF peptide
T4 chain: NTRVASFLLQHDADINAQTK

GABPbeta peptide = biological target: T5, GABPbeta peptide
T5 chain: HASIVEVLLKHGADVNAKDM

[2] = biological target: T6, GST HIF-1α 786-826, Q16665; details: scale: % activity relative to GST HIF-1α 786-826
T6 chain: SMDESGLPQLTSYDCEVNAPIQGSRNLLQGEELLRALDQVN

[3] = biological target: GST p105 ARD N to A mutant; details: scale: % activity relative to GST HIF-1α 786-826
GST p105 ARD = biological target: T7, GST p105 ARD; details: scale: % activity relative to GST HIF-1α 786-826
T7 chain: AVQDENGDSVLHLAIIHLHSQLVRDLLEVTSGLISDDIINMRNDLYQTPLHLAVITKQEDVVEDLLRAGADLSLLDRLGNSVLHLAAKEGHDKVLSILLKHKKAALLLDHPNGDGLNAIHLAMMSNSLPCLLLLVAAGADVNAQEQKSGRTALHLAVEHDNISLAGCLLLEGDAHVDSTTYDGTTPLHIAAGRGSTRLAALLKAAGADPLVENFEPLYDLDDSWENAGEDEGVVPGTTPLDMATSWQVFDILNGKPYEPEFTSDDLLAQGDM

Gankyrin/p28-II peptide = biological target: T8, Gankyrin/p28-II peptide
T8 chain: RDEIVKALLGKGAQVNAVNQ

IkBa 21 mer peptide = biological target: T9, IkBa 21 mer peptide
T9 chain: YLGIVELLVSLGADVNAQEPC

[4] = biological target: T10, IkappaB-alpha, recombinant protein, P25963
T10 chain: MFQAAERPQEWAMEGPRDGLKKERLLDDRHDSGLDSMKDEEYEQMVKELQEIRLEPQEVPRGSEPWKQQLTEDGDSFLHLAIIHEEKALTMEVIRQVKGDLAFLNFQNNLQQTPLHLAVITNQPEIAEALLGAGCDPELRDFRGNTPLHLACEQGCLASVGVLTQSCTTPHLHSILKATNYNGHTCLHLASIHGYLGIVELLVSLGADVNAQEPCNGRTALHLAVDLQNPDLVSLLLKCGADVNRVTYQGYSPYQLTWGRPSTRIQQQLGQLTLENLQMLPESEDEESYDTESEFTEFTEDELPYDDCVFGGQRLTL

M110 peptide = biological target: T11, M110 peptide
T11 chain: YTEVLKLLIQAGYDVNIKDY

Myotrophin peptide = biological target: T12, Myotrophin peptide
T12 chain: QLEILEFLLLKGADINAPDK

Tankyrase 1/2 peptide = biological target: T13, Tankyrase 1/2 peptide
T13 chain: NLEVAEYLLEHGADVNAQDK

p105 21 mer peptide = biological target: T14, p105 21 mer peptide
T14 chain: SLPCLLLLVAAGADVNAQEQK

[5] = biological target: T15, p105 ARD (ankyrin repeat domain of p105, amino acid residues 537-809), free form; details: scale: % activity relative to GST HIF-1α 786-826
T15 chain: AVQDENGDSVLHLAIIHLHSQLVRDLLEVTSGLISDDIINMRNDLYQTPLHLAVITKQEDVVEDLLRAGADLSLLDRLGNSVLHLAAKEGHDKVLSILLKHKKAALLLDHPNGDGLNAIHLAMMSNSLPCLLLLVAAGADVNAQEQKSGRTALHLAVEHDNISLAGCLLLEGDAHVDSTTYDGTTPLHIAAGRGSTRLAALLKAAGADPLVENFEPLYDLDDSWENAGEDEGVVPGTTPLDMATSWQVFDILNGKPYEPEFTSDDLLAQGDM

p19-INK-4d peptide = biological target: T16, p19-INK-4d peptide
T16 chain: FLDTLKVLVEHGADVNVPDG

[6] = scale: % activity relative to GST HIF-1α 786-826

B1: factor inhibiting hypoxia-inducible factor (FIH), highly purified recombinant (protein)
chain: MAATAAEAVASGSGEPREEAGALGPAWDESQLRSYSFPTRPIPRLSQSDPRAEELIENEEPVVLTDTNLVYPALKWDLEYLQENIGNGDFSVYSASTHKFLYYDEKKMANFQNFKPRSNREEMKFHEFVEKLQDIQQRGGEERLYLQQTLNDTVGRKIVMDFLGFNWNWINKQQGKRGWGQLTSNLLLIGMEGNVTPAHYDEQQNFFAQIKGYKRCILFPPDQFECLYPYPVHHPCDRQSQVDFDNPDYERFPNFQNVVGYETVVGPGDVLYIPMYWWHHIESLLNGGITITVNFWYKGAPTPKRIEYPLKAHQKVAIMRNIEKMLGEALGNPQEVGPLLNTMIKGRYN
For B1, the Activity + FIH (relative to synthetic HIF1alphaCAD) (relative to synthetic HIF1alphaCAD) (2-5A-d-R peptide) was 27.8, the “Hydroxylation of peptide observed by LC-MS analysis” value (“Hydroxylation of peptide observed” below) (2-5A-d-R peptide) was “Yes” and the Activity + FIH (relative to synthetic HIF1alphaCAD) (relative to synthetic HIF1alphaCAD) [1] was 100. For the same protein, the “Hydroxylation of peptide observed” value [1] was “Yes”, the % activity relative to GST HIF-1α 786-826 (decarboxylation of 2OG) [1, 6] was 75 and the “2D-NMR spectra of the peptide after incubation with FIH” value (FEM-1 21 mer peptide) was “consistent with asparaginyl hydroxylation”. The “direct peptide substrate hydroxylation by LC-MS” value (FEM-1 21 mer peptide) was “both the FEM-1 and IkappaB-alpha peptides were observed to be hydroxylated under standard assay conditions”, the % activity relative to GST HIF-1α 786-826 (decarboxylation of 2OG) (FEM-1 21 mer peptide; [6]) was 89 and the Activity + FIH (relative to synthetic HIF1alphaCAD) (relative to synthetic HIF1alphaCAD) (FGIF peptide) was 168. For the same protein, the “Hydroxylation of peptide observed” value (FGIF peptide) was “Yes”, the Activity + FIH (relative to synthetic HIF1alphaCAD) (relative to synthetic HIF1alphaCAD) (GABPbeta peptide) was 107 and the “Hydroxylation of peptide observed” value (GABPbeta peptide) was “Yes”. For the same protein, the % activity relative to GST HIF-1α 786-826 (decarboxylation of 2OG) [2] was 100, the % activity relative to GST HIF-1α 786-826 (decarboxylation of 2OG) [3] was 12 and the % activity relative to GST HIF-1α 786-826 (decarboxylation of 2OG) (GST p105 ARD) was 129. For the same protein, the Activity + FIH (relative to synthetic HIF1alphaCAD) (relative to synthetic HIF1alphaCAD) (Gankyrin/p28-II peptide) was 116, the “Hydroxylation of peptide observed” value (Gankyrin/p28-II peptide) was “Yes” and the “direct peptide substrate hydroxylation by LC-MS” value (IkBa 21 mer peptide) was “both the FEM-1 and IkappaB-alpha peptides were observed to be hydroxylated under standard assay conditions”. The % activity relative to GST HIF-1α 786-826 (decarboxylation of 2OG) (IkBa 21 mer peptide; [6]) was 111, the “MALDI-TOF mass spectrometry of tryptic fragments after incubation with FIH” value [4] was “The results demonstrated hydroxylation of the fragment” and the % activity relative to GST HIF-1α 786-826 (decarboxylation of 2OG) [4, 6] was 144. The Activity + FIH (relative to synthetic HIF1alphaCAD) (relative to synthetic HIF1alphaCAD) (M110 peptide) was 122, the “Hydroxylation of peptide observed” value (M110 peptide) was “Yes” and the Activity + FIH (relative to synthetic HIF1alphaCAD) (relative to synthetic HIF1alphaCAD) (Myotrophin peptide) was 154. For the same protein, the “Hydroxylation of peptide observed” value (Myotrophin peptide) was “Yes”, the Activity + FIH (relative to synthetic HIF1alphaCAD) (relative to synthetic HIF1alphaCAD) (Tankyrase 1/2 peptide) was 107 and the “Hydroxylation of peptide observed” value (Tankyrase 1/2 peptide) was “Yes”. The “site of hydroxylation by LC-MS” value (Tankyrase 1/2 peptide) was “LC-MS analyses located the site of hydroxylation to the internal asparagine residue in the case of tankyrase”, the “2D-NMR spectra of the peptide after incubation with FIH” value (p105 21 mer peptide) was “consistent with asparaginyl hydroxylation” and the % activity relative to GST HIF-1α 786-826 (decarboxylation of 2OG) (p105 21 mer peptide; [6]) was 100. For the same protein, the % activity relative to GST HIF-1α 786-826 (decarboxylation of 2OG) [5] was 164, the “MALDI ToF mass spectrometry of the tryptic digest after incubation with FIH” value (p105 ARD L668K mutant) was “following incubation with FIH, a peak at 1,542 Da appears in the spectrum that corresponds to the hydroxylated 1,526 Da peptide i.e. +16 Da” and the Activity + FIH (relative to synthetic HIF1alphaCAD) (relative to synthetic HIF1alphaCAD) (p19-INK-4d peptide) was 124. For the same protein, the “Hydroxylation of peptide observed” value (p19-INK-4d peptide) was “Yes”.
